Measurements: US20160053277A1, “Compositions Having Dicamba Decarboxylase Activity and Methods of Use” (PIONEER HI-BRED INTERNATIONAL, INC., priority 2013, published 2016)

Tests used:
[1] = Saturation mutagenesis of SEQ ID NO:109: dicamba decarboxylation activity of point mutants (carbon dioxide released); details: for Fold Activity: decarboxylation activity (carbon dioxide released) of point mutant compared with unmutated backbone protein, backbone SEQ ID NO: 109
[2] = 14C assay with IPTG-induced recombinant E. coli cells: 14CO2 captured from [14C]-carboxyl-labeled dicamba; details: for decarboxylation activity of dicamba: among the 108 sequences tested, recombinant E. coli cells; for Enzymatic Detection level: dicamba decarboxylation activity of the protein of the given SEQ ID NO, High / Low / No; for Dicamba Decarboxylase Activity: induced recombinant E. coli cells, [14C]-carboxyl-labeled dicamba, 14CO2 capture
[3] = dicamba decarboxylation activity of point mutants of SEQ ID NO: 109, relative to unchanged template
[4] = point mutation in SEQ ID NO: 109

B1: 132 (protein)
chain: SLLRFSAVSRHHRGASIDPMTFSEATTPDALTPDAHTPRLLTCDVLYTGMGGAQSPGGVVVVGETVAAAGHPDELRRQYPHAAEERAGAVIAPPPVNAHTHLDMSAYEFQALPYFQWIPEVVIRGRHLRGVAAAQAGADTLTRLGAGGVGDIVWAPEVMDALLAREDLSGTLYFEVLNPFPDKADEVFAAARTHLERWRRLERPGLRLGLSPHTPFTVSHRLMRLLSDYAAGEGLPLQIHVAEHPTELEMFRTGGGPLWDNRMPALYPHTLAEVIGREPGPDLTPVRYLDELGVLAARPTLVHMVNVTPDDIARVARAGCAVVTCPRSNHHLECGTFDWPAFAAAGVEVALGTDSVASGETLNVREEVTFARQLYPGLDPRVLVRAAVKGGQRVVGGRTPFLRRGETWQEGFRWELSRDL
modifications: Deinococcus Radiodurans
Q: For B1, which “Fold Activity” value [1] is on record?
A: 1.6

B2: 131 (protein)
chain: MSLTKIDAYAHILPAKYYQKMLSVEPNIPNMFPFIKIKTLMDLDERLTKWPDQNTKQVISLANISPEDFTDSKTSAELCQSANEELSNLVDQHPGKFAGAVAILPMNNIESACKVISSIKDDENLVGAQIFTRHLGKSIADKEFRPVLAQAAKLHVPLWMHPVFDARKPDNNLVFSWEYELSQAMLQLVQSDLFQDYPNLKILVHHAGAMVPFFSGRIDHILDEKHAQDFKKFYVDTAILGNTPALQLAIDYYGIDHVLFGTDAPFAVMPSGADQIITQAINDLTISDKDKQKIFHDNYYSLIKEGHHHHHH
modifications: Lactobacillus Acidophilus
Q: With B2 as the molecule, how does the “Fold Activity” value [1] read?
A: 1.6

B3: 44 (protein, listed as Mycobacterium avium)
chain: MARIITVEEHFQHPEVSARVAELTGPAVEGLAEFGNAFSLDPDSTARLGGNRLAHMDQVGIDVQVVSHGNGSPGTLQHPEAVELCRRVNNDLAAQIAENPDRFRGFATLPLYDPAAAAEELRRCVGDLGFVGALIAGSYDGLFLDDERFDPILTAAEAVDFPIYVHPGLPEAPVSQRYYAGSWPASVHMMFSGPAFGWHAEAGIHIVRLILSGALDRHPTLKLLSGHWGELAAFYLERLDETLGLLPTGLERAPSDYYRQQVWITPSGMYNQNQLNFMTAELGAQRIIYSEDFPYVVRDNVSTFLEQAGLSEADTHAIAHTNAEALLRI
Q: With B3 as the molecule, how does the “decarboxylation activity of dicamba” value [2] read?
A: showed decarboxylation activity of dicamba

Q: What about the “Enzymatic Detection level” value [2] of the same molecule?
A: High

Q: What about the “Dicamba Decarboxylase Activity” value [2] of the same molecule?
A: High

Q: And the “Fold Activity” value [1]?
A: 0.7

B4: L38I: point mutant of SEQ ID NO: 109 (protein)
chain: MAQGKVALEEHFAIPETLQDSAGFVPGDYWKELQHRLIDIQDTRLKLMDAHGIETMILSLNAPAVQAIPDRRKAIEIARRANDVLAEECAKRPDRFLAFAALPLQDPDAATEELQRCVNDLGFVGALVNGFSQEGDGQTPLYYDLPQYRPFWGEVEKLDVPFYLHPRNPLPQDSRIYDGHPWLLGPTWAFAQETAVHALRLMASGLFDEHPRLNIILGHMGEGLPYMMWRIDHRVAWVKLPPRYPAKRRFMDYFNENFHITTSGNFRTQTLIDAILEIGADRILFSTDWPFENIDHASDWFNATSIAEADRVKIGRTNARRLFKLDGA
modifications: Dicamba decarboxylase variant clone: DC.4.032
Q: Which “Average Activity (Fold of SEQ ID NO: 109)” value [1, 3] does the source give for B4 here?
A: 2.0 Fold of SEQ ID NO: 109

Q: What about the “Average Activity (Fold of SEQ ID NO: 109)” value [1, 4] of the same molecule?
A: 2.0 Fold of SEQ ID NO: 109

B5: G52E: point mutant of SEQ ID NO: 109 (protein)
chain: MAQGKVALEEHFAIPETLQDSAGFVPGDYWKELQHRLLDIQDTRLKLMDAHEIETMILSLNAPAVQAIPDRRKAIEIARRANDVLAEECAKRPDRFLAFAALPLQDPDAATEELQRCVNDLGFVGALVNGFSQEGDGQTPLYYDLPQYRPFWGEVEKLDVPFYLHPRNPLPQDSRIYDGHPWLLGPTWAFAQETAVHALRLMASGLFDEHPRLNIILGHMGEGLPYMMWRIDHRVAWVKLPPRYPAKRRFMDYFNENFHITTSGNFRTQTLIDAILEIGADRILFSTDWPFENIDHASDWFNATSIAEADRVKIGRTNARRLFKLDGA
modifications: Dicamba decarboxylase variant clone: DC.4.032
Q: What does the source list for B5?
A: Average Activity (Fold of SEQ ID NO: 109) [1, 3]: 3.1 Fold of SEQ ID NO: 109; Average Activity (Fold of SEQ ID NO: 109) [1, 4]: 3.1 Fold of SEQ ID NO: 109

B6: A50K: point mutant of SEQ ID NO: 109 (protein)
chain: MAQGKVALEEHFAIPETLQDSAGFVPGDYWKELQHRLLDIQDTRLKLMDKHGIETMILSLNAPAVQAIPDRRKAIEIARRANDVLAEECAKRPDRFLAFAALPLQDPDAATEELQRCVNDLGFVGALVNGFSQEGDGQTPLYYDLPQYRPFWGEVEKLDVPFYLHPRNPLPQDSRIYDGHPWLLGPTWAFAQETAVHALRLMASGLFDEHPRLNIILGHMGEGLPYMMWRIDHRVAWVKLPPRYPAKRRFMDYFNENFHITTSGNFRTQTLIDAILEIGADRILFSTDWPFENIDHASDWFNATSIAEADRVKIGRTNARRLFKLDGA
modifications: Dicamba decarboxylase variant clone: DC.4.032
Q: What does the source list for B6?
A: Average Activity (Fold of SEQ ID NO: 109) [1, 3]: 1.9 Fold of SEQ ID NO: 109; Average Activity (Fold of SEQ ID NO: 109) [1, 4]: 1.9 Fold of SEQ ID NO: 109

B7: T43C: point mutant of SEQ ID NO: 109 (protein)
chain: MAQGKVALEEHFAIPETLQDSAGFVPGDYWKELQHRLLDIQDCRLKLMDAHGIETMILSLNAPAVQAIPDRRKAIEIARRANDVLAEECAKRPDRFLAFAALPLQDPDAATEELQRCVNDLGFVGALVNGFSQEGDGQTPLYYDLPQYRPFWGEVEKLDVPFYLHPRNPLPQDSRIYDGHPWLLGPTWAFAQETAVHALRLMASGLFDEHPRLNIILGHMGEGLPYMMWRIDHRVAWVKLPPRYPAKRRFMDYFNENFHITTSGNFRTQTLIDAILEIGADRILFSTDWPFENIDHASDWFNATSIAEADRVKIGRTNARRLFKLDGA
modifications: Dicamba decarboxylase variant clone: DC.4.032
Q: For B7, which “Average Activity (Fold of SEQ ID NO: 109)” value [1, 3] is on record?
A: 1.7 Fold of SEQ ID NO: 109

Q: And the “Average Activity (Fold of SEQ ID NO: 109)” value [1, 4]?
A: 1.7 Fold of SEQ ID NO: 109

B8: D42M: point mutant of SEQ ID NO: 109 (protein)
chain: MAQGKVALEEHFAIPETLQDSAGFVPGDYWKELQHRLLDIQMTRLKLMDAHGIETMILSLNAPAVQAIPDRRKAIEIARRANDVLAEECAKRPDRFLAFAALPLQDPDAATEELQRCVNDLGFVGALVNGFSQEGDGQTPLYYDLPQYRPFWGEVEKLDVPFYLHPRNPLPQDSRIYDGHPWLLGPTWAFAQETAVHALRLMASGLFDEHPRLNIILGHMGEGLPYMMWRIDHRVAWVKLPPRYPAKRRFMDYFNENFHITTSGNFRTQTLIDAILEIGADRILFSTDWPFENIDHASDWFNATSIAEADRVKIGRTNARRLFKLDGA
modifications: Dicamba decarboxylase variant clone: DC.4.032
Q: Which results are given for B8?
A: Average Activity (Fold of SEQ ID NO: 109) [1, 3]: 2.4 Fold of SEQ ID NO: 109; Average Activity (Fold of SEQ ID NO: 109) [1, 4]: 2.4 Fold of SEQ ID NO: 109

B9: D42S: point mutant of SEQ ID NO: 109 (protein)
chain: MAQGKVALEEHFAIPETLQDSAGFVPGDYWKELQHRLLDIQSTRLKLMDAHGIETMILSLNAPAVQAIPDRRKAIEIARRANDVLAEECAKRPDRFLAFAALPLQDPDAATEELQRCVNDLGFVGALVNGFSQEGDGQTPLYYDLPQYRPFWGEVEKLDVPFYLHPRNPLPQDSRIYDGHPWLLGPTWAFAQETAVHALRLMASGLFDEHPRLNIILGHMGEGLPYMMWRIDHRVAWVKLPPRYPAKRRFMDYFNENFHITTSGNFRTQTLIDAILEIGADRILFSTDWPFENIDHASDWFNATSIAEADRVKIGRTNARRLFKLDGA
modifications: Dicamba decarboxylase variant clone: DC.4.032
Q: For B9, which “Average Activity (Fold of SEQ ID NO: 109)” value [1, 3] is on record?
A: 2.0 Fold of SEQ ID NO: 109

B10: D42A: point mutant of SEQ ID NO: 109 (protein)
chain: MAQGKVALEEHFAIPETLQDSAGFVPGDYWKELQHRLLDIQATRLKLMDAHGIETMILSLNAPAVQAIPDRRKAIEIARRANDVLAEECAKRPDRFLAFAALPLQDPDAATEELQRCVNDLGFVGALVNGFSQEGDGQTPLYYDLPQYRPFWGEVEKLDVPFYLHPRNPLPQDSRIYDGHPWLLGPTWAFAQETAVHALRLMASGLFDEHPRLNIILGHMGEGLPYMMWRIDHRVAWVKLPPRYPAKRRFMDYFNENFHITTSGNFRTQTLIDAILEIGADRILFSTDWPFENIDHASDWFNATSIAEADRVKIGRTNARRLFKLDGA
modifications: Dicamba decarboxylase variant clone: DC.4.032
Q: Which “Average Activity (Fold of SEQ ID NO: 109)” value [1, 3] does the source give for B10 here?
A: 2.0 Fold of SEQ ID NO: 109

B11: 130 (protein)
chain: MGSSHHHHHHSSGRENLYFQGMKSITFEEHYVIEDIQKETMNAISADPKGVPMKVMLEGLEKKTGFTNADELSHHDERIQFMNNQDVQIQVLSYGNGSPSNLVGQKAIELCQKANDQLANYIAQYPNRFVGFATLPINEPEAAAREFERCINDLGFKGALIMGRAQDGFLDQDKYDIIFKTAENLDVPIYLHPAPVNSDIYQSYYKGNYPEVTAATFACFGYGWHIDVGIHAIHLVLSGIFDRYPKLNMIIGHWGEFIPFFLERMDEALFAEHLNHSVSYYFKNSFYITPSGMLTKPQFDLVKKEVGIDRILYAADYPYIEPEKLGVFLDELGLTDEEKEKISYTNGAKLLGLSSNN
modifications: Staphylococcus Aureus
Q: With B11 as the molecule, how does the “Fold Activity” value [1] read?
A: 1.2

B12: 43 (protein, listed as Rhizobium leguminosarum)
chain: MAQGKIALEEHFAIPETLQDSAGFVPGDYWTELSARLLDIQDKRLRLMDTHGIEKMILSLNAPAVQAIPDKAKAVEISRRANDFLAEQCVKNPNRFLGFAALPLQDPDAATQELQRCVTTMGFVGALVNGFSQEGDGTTPLYYDLPQYRPFWAEVEKLDVPFYLHPRNPLPQDSRIYAGHSWLMGPTWAFAQETAVHALRLMGSGLFDEHPALRIIVGHMGEGLPYMMWRIDNRNAWVKVEKSYPAKRPIADYFNENFYITTSGNFRTQSLIDAMLEIGADRILFSADWPFENVDHAANWFDSATISEADRLKIGRTNAVSLFKLDR
Q: What does the source list for B12?
A: decarboxylation activity of dicamba [2]: showed decarboxylation activity of dicamba; Enzymatic Detection level [2]: High; Dicamba Decarboxylase Activity [2]: High; Fold Activity [1]: 1
